# Laboratory results taken from US20260166140A1, “Combinations Involving Epidermal Growth Factor Receptor Tyrosine Kinase Inhibitors For the Treatment of Cancer” (AstraZeneca AB, priority 2022, published 2026).
# T1: Semaphorin 3a (UniProt Q14563 21-771, limits assumed)
# T1 construct: also called Sema 3a
# T1 sequence (looked up): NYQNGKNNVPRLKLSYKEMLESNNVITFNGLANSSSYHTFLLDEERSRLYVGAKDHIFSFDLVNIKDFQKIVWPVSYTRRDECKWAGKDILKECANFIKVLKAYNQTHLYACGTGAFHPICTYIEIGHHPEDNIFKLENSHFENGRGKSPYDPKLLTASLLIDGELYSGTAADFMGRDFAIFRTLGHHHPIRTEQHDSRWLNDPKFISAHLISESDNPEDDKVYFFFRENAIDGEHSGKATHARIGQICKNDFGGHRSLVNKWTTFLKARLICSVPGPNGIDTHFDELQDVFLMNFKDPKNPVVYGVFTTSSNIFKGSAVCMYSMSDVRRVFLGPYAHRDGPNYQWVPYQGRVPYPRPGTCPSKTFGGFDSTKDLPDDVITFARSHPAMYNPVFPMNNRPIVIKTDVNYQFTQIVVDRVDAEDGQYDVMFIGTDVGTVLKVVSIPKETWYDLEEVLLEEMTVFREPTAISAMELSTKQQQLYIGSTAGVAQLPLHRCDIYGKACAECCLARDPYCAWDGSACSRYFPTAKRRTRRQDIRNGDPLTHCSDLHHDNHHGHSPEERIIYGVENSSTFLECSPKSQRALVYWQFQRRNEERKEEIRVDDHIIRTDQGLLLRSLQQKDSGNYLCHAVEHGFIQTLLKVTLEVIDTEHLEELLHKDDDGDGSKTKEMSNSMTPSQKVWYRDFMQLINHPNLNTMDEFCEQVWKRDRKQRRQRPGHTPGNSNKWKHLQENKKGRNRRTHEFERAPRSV
# T2: HER4 (UniProt Q15303 26-649, limits assumed)
# T2 construct: also called EGFR HER family protein HER4
# T2 sequence (looked up): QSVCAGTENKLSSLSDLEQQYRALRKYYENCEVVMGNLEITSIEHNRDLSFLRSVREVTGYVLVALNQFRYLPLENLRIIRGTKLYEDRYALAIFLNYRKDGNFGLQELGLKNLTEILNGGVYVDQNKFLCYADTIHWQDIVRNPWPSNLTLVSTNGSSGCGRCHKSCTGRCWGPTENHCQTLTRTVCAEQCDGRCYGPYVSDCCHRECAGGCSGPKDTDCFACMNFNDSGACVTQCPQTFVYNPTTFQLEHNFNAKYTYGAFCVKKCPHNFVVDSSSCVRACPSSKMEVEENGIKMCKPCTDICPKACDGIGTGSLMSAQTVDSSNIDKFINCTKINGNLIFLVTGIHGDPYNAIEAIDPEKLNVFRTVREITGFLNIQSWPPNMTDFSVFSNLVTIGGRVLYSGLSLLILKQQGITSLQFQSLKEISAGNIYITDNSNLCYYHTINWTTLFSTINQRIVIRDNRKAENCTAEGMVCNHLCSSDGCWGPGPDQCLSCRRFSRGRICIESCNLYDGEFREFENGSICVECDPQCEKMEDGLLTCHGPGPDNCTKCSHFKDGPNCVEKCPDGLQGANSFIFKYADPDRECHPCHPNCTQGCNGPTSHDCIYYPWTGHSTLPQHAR
# Legend:
# [1] = molecular target: T3, Human EGFR (recombinant, soluble monomeric) (human, UniProt P00533 25-645); assay: Octet biolayer interferometry, antigen capture format: His-tagged human cMET on NI-NTA sensors, then antibody (66 nM), then human EGFR (500 nM)
# T3 construct: also called EGFR antigen
# [2] = molecular target: T4, Cynomolgus monkey cMET (recombinant, soluble monomeric) (cynomolgus monkey, UniProt A0M8R7 25-932 (Papio anubis entry)); assay: SPR, Biacore T200, antibody captured on anti-human IgG, soluble monomeric antigen as analyte, 25 C
# T4 construct: also called cyno cMET
# T4 sequence (A0M8R7 25-932 S170N/I621T): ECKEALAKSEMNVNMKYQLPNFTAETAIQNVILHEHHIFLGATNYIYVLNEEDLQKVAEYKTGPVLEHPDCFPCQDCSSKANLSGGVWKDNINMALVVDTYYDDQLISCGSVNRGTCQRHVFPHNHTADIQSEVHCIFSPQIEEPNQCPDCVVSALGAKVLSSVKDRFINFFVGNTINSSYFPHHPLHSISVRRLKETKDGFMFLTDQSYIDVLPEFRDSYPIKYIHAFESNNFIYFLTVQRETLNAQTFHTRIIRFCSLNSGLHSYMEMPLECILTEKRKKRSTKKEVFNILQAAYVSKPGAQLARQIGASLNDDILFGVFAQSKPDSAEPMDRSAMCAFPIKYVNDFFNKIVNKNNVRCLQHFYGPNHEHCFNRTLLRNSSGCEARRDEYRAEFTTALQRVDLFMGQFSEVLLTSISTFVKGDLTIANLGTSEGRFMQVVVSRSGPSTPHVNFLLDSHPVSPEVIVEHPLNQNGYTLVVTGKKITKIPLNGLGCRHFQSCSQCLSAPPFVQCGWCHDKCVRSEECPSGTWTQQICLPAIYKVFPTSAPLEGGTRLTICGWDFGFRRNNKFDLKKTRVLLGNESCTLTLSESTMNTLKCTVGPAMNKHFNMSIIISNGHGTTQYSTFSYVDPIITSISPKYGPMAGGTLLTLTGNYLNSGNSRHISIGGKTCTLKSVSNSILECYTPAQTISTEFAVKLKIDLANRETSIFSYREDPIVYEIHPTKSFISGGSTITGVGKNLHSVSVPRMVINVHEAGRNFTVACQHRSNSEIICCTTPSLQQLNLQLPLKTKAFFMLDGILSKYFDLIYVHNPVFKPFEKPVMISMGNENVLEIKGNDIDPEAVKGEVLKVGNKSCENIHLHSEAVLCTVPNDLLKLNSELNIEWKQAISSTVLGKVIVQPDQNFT
# [3] = molecular target: T5, Human cMET (recombinant, soluble monomeric) (human, UniProt P08581 25-932); assay: as above
# T5 construct: in the HTRF assay it is called the human cMET receptor; also called His-tagged cMET antigen
# T5 sequence (P08581 25-932): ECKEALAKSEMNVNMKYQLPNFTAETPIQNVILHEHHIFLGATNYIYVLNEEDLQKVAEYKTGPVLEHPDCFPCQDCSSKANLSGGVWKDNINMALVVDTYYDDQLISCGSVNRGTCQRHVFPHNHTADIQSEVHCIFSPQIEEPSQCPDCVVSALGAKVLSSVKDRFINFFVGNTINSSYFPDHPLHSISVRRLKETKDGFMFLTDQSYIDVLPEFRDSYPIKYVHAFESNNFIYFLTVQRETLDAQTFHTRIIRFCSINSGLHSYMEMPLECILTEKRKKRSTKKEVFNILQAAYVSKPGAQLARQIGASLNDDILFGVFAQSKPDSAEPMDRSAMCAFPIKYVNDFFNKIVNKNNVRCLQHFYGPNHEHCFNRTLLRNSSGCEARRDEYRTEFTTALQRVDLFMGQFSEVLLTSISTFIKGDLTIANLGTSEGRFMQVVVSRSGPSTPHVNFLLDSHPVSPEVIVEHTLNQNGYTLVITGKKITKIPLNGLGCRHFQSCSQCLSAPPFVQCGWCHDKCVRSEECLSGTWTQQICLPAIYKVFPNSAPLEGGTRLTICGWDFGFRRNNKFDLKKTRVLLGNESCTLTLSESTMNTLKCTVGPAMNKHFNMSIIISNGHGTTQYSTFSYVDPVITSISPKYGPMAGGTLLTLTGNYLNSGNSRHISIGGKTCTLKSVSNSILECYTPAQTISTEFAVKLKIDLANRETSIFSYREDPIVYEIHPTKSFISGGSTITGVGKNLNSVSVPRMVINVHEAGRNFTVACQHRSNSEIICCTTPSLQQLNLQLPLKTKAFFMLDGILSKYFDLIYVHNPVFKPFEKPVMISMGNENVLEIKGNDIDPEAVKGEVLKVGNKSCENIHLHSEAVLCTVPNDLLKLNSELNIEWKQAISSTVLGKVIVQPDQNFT
# Ron (CD136) = Ron (CD136) (UniProt Q04912 25-957, limits assumed); assay: ELISA: antigen coated at 1 ug/mL, antibody dilution series, goat anti-human Fab-HRP, A450; panel Human Ron (CD136)
# Mouse cMET (recombinant) = Mouse cMET (recombinant) (mouse, UniProt P16056 25-929, limits assumed); assay: ELISA: antigen coated at 1 ug/mL, antibody dilution series, goat anti-human Fab-HRP, A450; panel Mouse cMET
# Chain of Mouse cMET (recombinant) (P16056 25-929 limits assumed): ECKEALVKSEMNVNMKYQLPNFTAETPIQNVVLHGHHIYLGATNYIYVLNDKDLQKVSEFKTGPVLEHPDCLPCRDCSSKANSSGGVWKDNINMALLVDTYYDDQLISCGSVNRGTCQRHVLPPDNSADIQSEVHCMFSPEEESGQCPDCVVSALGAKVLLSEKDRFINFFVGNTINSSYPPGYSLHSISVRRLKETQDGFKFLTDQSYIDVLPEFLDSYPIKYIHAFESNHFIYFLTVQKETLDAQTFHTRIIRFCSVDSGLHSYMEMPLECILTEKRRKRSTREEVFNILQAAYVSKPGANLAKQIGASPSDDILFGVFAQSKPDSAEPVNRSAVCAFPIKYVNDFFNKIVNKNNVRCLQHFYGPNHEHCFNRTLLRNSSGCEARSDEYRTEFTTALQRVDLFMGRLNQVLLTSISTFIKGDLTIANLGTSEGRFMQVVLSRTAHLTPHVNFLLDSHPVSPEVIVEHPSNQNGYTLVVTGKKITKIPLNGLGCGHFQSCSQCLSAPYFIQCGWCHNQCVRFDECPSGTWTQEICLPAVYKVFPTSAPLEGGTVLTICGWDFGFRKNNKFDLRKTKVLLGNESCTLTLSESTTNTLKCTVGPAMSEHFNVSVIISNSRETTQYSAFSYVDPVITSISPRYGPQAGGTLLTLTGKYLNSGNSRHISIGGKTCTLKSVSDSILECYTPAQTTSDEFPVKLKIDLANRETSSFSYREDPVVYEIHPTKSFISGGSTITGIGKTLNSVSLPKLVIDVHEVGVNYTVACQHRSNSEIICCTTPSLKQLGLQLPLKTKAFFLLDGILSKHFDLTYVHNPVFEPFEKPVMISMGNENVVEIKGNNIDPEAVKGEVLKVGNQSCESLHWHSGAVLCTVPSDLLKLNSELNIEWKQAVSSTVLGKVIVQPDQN
# [4] = molecular target: T6, Mouse EGFR (recombinant, soluble monomeric) (mouse, UniProt Q01279 25-647); assay: ELISA: antigen coated at 1 ug/mL, antibody dilution series, goat anti-human Fab-HRP, A450; panel Mouse EGFR
# T6 construct: also called murine EGFR
# Semaphorin 3a = molecular target: T1, Semaphorin 3a; assay: ELISA: antigen coated at 1 ug/mL, antibody dilution series, goat anti-human Fab-HRP, A450; panel Human Sema3a
# HER3 = molecular target: T7, HER3 (UniProt P21860 20-643, limits assumed); assay: ELISA: antigen coated at 1 ug/mL, antibody dilution series, goat anti-human Fab-HRP, A450; panel Human HER3
# T7 construct: also called EGFR HER family protein HER3
# [5] = molecular target: T8, Cynomolgus monkey EGFR (recombinant, soluble monomeric) (cynomolgus monkey, UniProt P55245 25-645 (rhesus entry)); assay: ELISA: antigen coated at 1 ug/mL, antibody dilution series, goat anti-human Fab-HRP, A450; panel Cynomolgus EGFR
# T8 construct: also called cyno EGFR
# HER2 = molecular target: T9, HER2 (UniProt P04626 23-652, limits assumed); assay: ELISA: antigen coated at 1 ug/mL, antibody dilution series, goat anti-human Fab-HRP, A450; panel Human HER2
# T9 construct: also called EGFR HER family protein HER2
# HER4 = molecular target: T2, HER4; assay: ELISA: antigen coated at 1 ug/mL, antibody dilution series, goat anti-human Fab-HRP, A450; panel Human HER4
# [6] = molecular target: T6, Mouse EGFR (recombinant, soluble …); assay: SPR, Biacore T200, antibody captured on anti-human IgG, soluble monomeric antigen as analyte, 25 C
# [7] = molecular target: T8, Cynomolgus monkey EGFR (recombinant, …); assay: as above
# [8] = molecular target: T3, Human EGFR (recombinant, soluble …); assay: as above
# [9] = molecular target: T4, Cynomolgus monkey cMET (recombinant, …); assay: ELISA: antigen coated at 1 ug/mL, antibody dilution series, goat anti-human Fab-HRP, A450; panel Cynomolgus cMET
# [10] = molecular target: T5, Human cMET (recombinant, soluble …); assay: ELISA: antigen coated at 1 ug/mL, antibody dilution series, goat anti-human Fab-HRP, A450; panel Human cMET
# [11] = molecular target: T5, Human cMET (recombinant, soluble …); assay: Octet biolayer interferometry, antigen capture format: His-tagged human cMET on NI-NTA sensors, then antibody (66 nM), then human EGFR (500 nM)
Binder,binding result (Ron (CD136)),binding result (Mouse cMET (recombinant)),binding result (Semaphorin 3a),binding result (HER3),binding result (HER2),binding result (HER4),Kd [6] [nM],koff [6] [s⁻¹],kon [6] [M⁻¹ s⁻¹],Kd [7] [nM],koff [7] [s⁻¹],kon [7] [M⁻¹ s⁻¹],Kd [8] [nM],koff [8] [s⁻¹],kon [8] [M⁻¹ s⁻¹],binding result [9],also measured
"B09-57 IgG (antibody, V domains shown, also called B09-GL; cMET IgG B09) VH: QVQLVQSGAEVKKPGASVKVSCKASGYTFTDYYIHWVRQATGQGLEWMGWMNPNSGNTGYAQKFQGRVTMTRDTSISTAYMELSSLRSEDTAVYYCARGQGYTHSWGQGTMVTVSS VL: DIQMTQSPSTLSASVGDRVTITCRASEGIYHWLAWYQQKPGKAPKLLIYKASSLASGVPSRFSGSGSGTEFTLTISSLQPDDFATYYCQQYSNYPPTFGGGTKLEIK",no binding (tested: 10 ug/ml),no binding (tested: 10 ug/ml),no binding (tested: 10 ug/ml),no binding (tested: 10 ug/ml),no binding (tested: 10 ug/ml),no binding (tested: 10 ug/ml),,,,,,,,,,,binding result [1]: no binding (tested: 500 nM EGFR); Kd [2]: 1.9 nM; koff [2]: 0.00194 s⁻¹; kon [2]: 1.04e+06 M⁻¹ s⁻¹; Kd [3]: 1.6 nM; koff [3]: 0.000882 s⁻¹; kon [3]: 563000 M⁻¹ s⁻¹; binding result [4]: no binding (tested: 10 ug/ml); binding result [5]: no binding (tested: 10 ug/ml)
"RAA22 IgG (antibody, V domains shown) VH: QVQLVQSGAEVKKPGSSVKVSCKASGGTFSDNDFSWVRQAPGQGLEWMGAIVAVFRTETYAQKFQDRVKITADISTRTTYMELSSLRSEDTAVYYCARRLMSAISGPGAPLLMWGQGTLVTVSS VL: QSALTQPRSVSGSPGQSVTISCTGTSSDVGGYNYVSWYQQHPGKAPKLMIYDVSKRPSGVPDRFSGSKSGNTASLTISGLQAEDEADYYCSSYTSSDTLEIFGGGTKLTVL",no binding (tested: 10 ug/ml),no binding (tested: 10 ug/ml),no binding (tested: 10 ug/ml),no binding (tested: 10 ug/ml),no binding (tested: 10 ug/ml),no binding (tested: 10 ug/ml),488,0.019,40300,170,0.00601,35400,46.6,0.00206,44100,no binding (tested: 10 ug/ml),binding result [10]: no binding (tested: 10 ug/ml)
"QD6 IgG (antibody, V domains shown, also called anti-EGFR antibody clone QD6) VH: QVQLVQSGAEVKKPGSSVKVSCKASGGTFSDNDFSWVRQAPGQGLEWMGAIVAVVRTETYAQKFQDRVKITADISTRTTYMELSSLRSEDTAVYYCARRLMSAISGPGAPLLMWGQGTLVTVSS VL: QSALTQPRSVSGSPGQSVTISCTGTSSDVGGYNYVSWYQQHPGKAPKLMIYDVSERPSGVPDRFSGSKSGNTASLTISGLQAEDEADYYCFSYTSSDTLEIFGGGTKLTVL",no binding (tested: 10 ug/ml),no binding (tested: 10 ug/ml),no binding (tested: 10 ug/ml),no binding (tested: 10 ug/ml),no binding (tested: 10 ug/ml),no binding (tested: 10 ug/ml),4.4,0.000735,167000,2.5,0.000288,114000,2,0.000292,148000,no binding (tested: 10 ug/ml),binding result [11]: no binding (tested: 66 nM)
